Assays:
Test in all cases: purified protein
Conditions in all cases: 5 mM MgCl2, 200 mM Tricine-NaOH pH 7.4, 37 °C
purified protein [1] = substrate: C[C@H](OP(=O)(O)O)C(=O)O
purified protein [2] = substrate: O=C(O)COP(=O)(O)O
purified protein [3] = substrate: O=P(O)(O)OC(CO)CO

B1: PbPGP (Plasmodium berghei ANKA) (protein)
chain: MSLIVSEASQNNYFKDSENSYNSFMKEWKIEKRVNVKDLYQNFEVFFFDCDGVLWRGDTVINGAIEVINKLISDNKKVYFITNNSTKSRDTLLGKFHKLGFTCVKKEHIICTSYAIAKYFHSKEEYKSRKKKIYVIGEKGICDELDALNLVWLGSYKDNDKKVIIQDEGEIQIDNNIGAVVVAIDFNINYYKIQYAQLCINGLDAEFIVSNKDPLANFTSNQQWAGTGSIVASIEQVSFKKPKVLGKPNLFMIESVLKSLNIDLSKVVMIGDRLDTDIFFAQNCKIKSILVSTGVTDANVFLNHNNLNIKPDYFMKSILEFL
- Km (purified protein [1]): 4773 ± 574 µM
- kcat (purified protein [1]): 67.34 ± 8.31 s⁻¹
- Km (purified protein [2]): 2526 ± 494 µM
- kcat (purified protein [2]): 75.15 ± 7.86 s⁻¹
- Km (purified protein [3]): 2110 ± 11 µM
- kcat (purified protein [3]): 10.18 ± 0.08 s⁻¹

From paper doi:10.1101/495473v2
